Assay results reported in publication PMC10457294 (Nature Communications, 2023).

T1: human B7.2 ectodomain fused to human Fc (human, UniProt P42081-1 26-238)
T1 construct: also called hB7.2-Fc; hB7.2-hFc; not shown: Fc (human), C-terminal, kept
T1 sequence (looked up): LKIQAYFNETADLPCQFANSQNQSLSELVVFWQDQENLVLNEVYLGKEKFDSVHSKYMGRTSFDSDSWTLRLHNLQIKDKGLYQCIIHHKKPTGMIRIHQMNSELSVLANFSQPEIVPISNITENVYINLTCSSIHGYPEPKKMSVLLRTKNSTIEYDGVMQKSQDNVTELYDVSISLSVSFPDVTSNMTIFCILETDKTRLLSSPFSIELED

B1: human B7.1 ectodomain fused to human Fc (Fc fusion, UniProt P33681-1 35-234, looked up)
chain: VIHVTKEVKEVATLSCGHNVSVEELAQTRIYWQKEKKMVLTMMSGDMNIWPEYKNRTIFDITNNLSIVILALRPSDEGTYECVVLKYEKDAFKREHLAEVTLSVKADFPTPSISDFEIPTSNIRRIICSTSGGFPEPHLSWLENGEELNAINTTVSQDPETELYAVSSKLDFNMTTNHSFMCLIKYGHLRVNQTFNWNTT
notes: also called hB7.1-Fc; hB7.1-hFc; not shown: Fc (human), C-terminal, kept
B2: VACV M2 (vaccinia virus M2), recombinant, His-tagged (natural protein)
chain: VEYKNTICPPRQDYRYWYFAAELTIGVNYDINSTIIGECHMSESYIDRNANIVLTGYGLEINMTIMDTDQRFVAAAEGVGKDNKLSVLLFTTQRLDKVHHNISVTITCMEMNCGTTKYDSDLPESIHKSSSCDITINGSCVTCVNLETDPTKINPHYLHPKDKYLYHNSEYGMRGSYGVTFIDELNQCLLDIKELSYDICYRE

Legend:
[1] = molecular target: B2; assay: far-Western, overlay or dot blot; details: both partners purified
[2] = molecular target: T1, human B7.2 ectodomain fused to human Fc; assay: far-Western, overlay or dot blot; details: both partners purified
[3] = molecular target: the molecule itself; assay: non-reducing against reducing SDS-PAGE

| Binder | binding result [1] | binding result [2] | binding result [3] |
| --- | --- | --- | --- |
| B1 | binds | – | – |
| B2 | – | binds | binds |
